According to paper PMC11514477:

Columns and labels:
[1] = target: macroH2A1 (endogenous; collective term for macroH2A1.1 and macroH2A1.2) (mouse (endogenous in C2C12 and MEF)); experiment: proximity ligation; duolink PLA in situ in control C2C12 cells; high-content screening microscopy (Operetta), nuclear spots of the full cell population counted with Harmony
[2] = target: macroH2A1 (endogenous; collective term for macroH2A1.1 and macroH2A1.2) (mouse (endogenous in C2C12 and MEF)); experiment: proximity ligation; duolink PLA in situ in C2C12 stable knockdown lines (Scramble control, macroH2A2 knockdown); cells extracted before fixation to remove soluble Mcm2; EdU-positive cells; confocal imaging, spots per nucleus counted in FIJI

Chain of macroH2A1 (endogenous; collective term for macroH2A1.1 and macroH2A1.2) (mouse (endogenous in C2C12 and MEF)) (Q9QZQ8 whole entry): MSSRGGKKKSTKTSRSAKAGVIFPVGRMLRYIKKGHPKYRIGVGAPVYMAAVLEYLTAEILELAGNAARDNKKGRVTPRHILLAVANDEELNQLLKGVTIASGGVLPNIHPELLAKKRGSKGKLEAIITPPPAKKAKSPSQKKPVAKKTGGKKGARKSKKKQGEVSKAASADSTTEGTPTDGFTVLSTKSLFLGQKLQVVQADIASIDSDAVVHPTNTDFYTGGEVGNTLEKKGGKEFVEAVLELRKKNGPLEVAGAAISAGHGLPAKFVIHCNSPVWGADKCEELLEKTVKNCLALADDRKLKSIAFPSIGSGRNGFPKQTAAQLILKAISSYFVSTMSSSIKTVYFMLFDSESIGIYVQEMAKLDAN

**Q.** “Mcm2 (subunit of the Mcm DNA helicase complex) (from UniProt P97310 1-904) (natural protein)” was tested. Which PLA spots per nucleus (spots per nucleus) [1] did it give?
**A.** Its PLA spots per nucleus (spots per nucleus) is 15.1.

**Q.** And the PLA spots per nucleus (control Scramble cells) (spots per nucleus) [2]?
**A.** The PLA spots per nucleus (control Scramble cells) (spots per nucleus) was 19.8.

**Q.** And the PLA spots per nucleus (macroH2A2 depleted cells) (spots per nucleus) [2]?
**A.** Its PLA spots per nucleus (macroH2A2 depleted cells) (spots per nucleus) is 18.2.
